Data on two molecules can be found in patent US20220332804A1 (CSL INNOVATION, published 2022).

The term Kd denotes the concentration at which binding is half-saturated. In general, koff refers to the first-order rate constant of dissociation. Broadly, the kon is a measure of how fast the partners come together.

Experiment [1] addresses T1, cynomolgus monkey C2 (cynomolgus monkey, UniProt G8F3W0 21-752).
T1 sequence: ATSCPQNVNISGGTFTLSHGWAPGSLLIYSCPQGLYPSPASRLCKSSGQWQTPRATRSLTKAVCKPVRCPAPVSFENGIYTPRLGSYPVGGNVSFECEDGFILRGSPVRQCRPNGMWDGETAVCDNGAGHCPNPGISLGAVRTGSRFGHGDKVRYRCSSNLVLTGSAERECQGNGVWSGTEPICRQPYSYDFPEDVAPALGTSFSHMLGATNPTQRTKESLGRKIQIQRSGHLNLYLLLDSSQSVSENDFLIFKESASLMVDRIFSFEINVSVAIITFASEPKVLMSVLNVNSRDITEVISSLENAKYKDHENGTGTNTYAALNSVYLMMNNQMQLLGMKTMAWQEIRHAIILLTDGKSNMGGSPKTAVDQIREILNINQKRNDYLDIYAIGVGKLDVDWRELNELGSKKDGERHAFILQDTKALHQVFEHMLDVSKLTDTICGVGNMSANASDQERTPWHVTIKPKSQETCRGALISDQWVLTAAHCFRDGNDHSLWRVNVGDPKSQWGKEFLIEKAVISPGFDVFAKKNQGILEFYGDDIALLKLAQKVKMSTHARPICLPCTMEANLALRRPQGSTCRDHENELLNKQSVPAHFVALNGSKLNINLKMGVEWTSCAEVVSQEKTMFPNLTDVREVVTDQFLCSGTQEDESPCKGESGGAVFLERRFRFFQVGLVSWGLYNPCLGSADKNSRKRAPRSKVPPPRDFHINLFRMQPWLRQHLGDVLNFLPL
Kind of experiment: cell-based or functional assay.

Experiment [2] has as its target T1, cynomolgus monkey C2. The experiment can be described thus: SPR, mAb captured, cyno C2 analyte, pH 7.3. A general note: SPR reads the build-up and loss of mass on a sensor chip optically.
Protocol: (§1) Surface plasmon resonance (SPR, Biacore) was used for all binding affinity analyses. In brief, goat anti-human IgG was directly immobilised onto the carboxymethyl dextran surface of CM5 sensorchips to approximately 12,000 RU using standard NHS/EDC chemistry at pH 5. The immobilised antibody surface was pre-conditioned with ten injections of polyclonal human IgG (Privigen 60 s) prepared at 1 μg/mL. Ligands (anti-C2 mAbs) were captured at the beginning of each cycle as described below. An adjacent spot or flow cell in which only Polyclonal IgG was capture was used as a reference surface. The goat anti-human IgG Fc antibody surface was regenerate in 100 mM H3PO4, injected for 45 seconds at the end of each cycle. Experiments were performed at 37° C. and the flow rate of each experiment was kept constant at 30 μL/min.
(§2) In addition to human C2, the pH dependent anti-C2 antibodies were also tested for their ability to bind to C2 from other mammalian species using the SPR methods described above in order to identify suitable surrogate species for in vivo testing. The antibodies were tested for binding at neutral pH against C2 from cynomolgus monkeys, mice, dogs, rabbits, rats, pigs, and sheep.
Experiment [3] has as its target T2, human complement C2 (human, UniProt P06681 21-752).
T2 construct: Recombinant full-length human C2 with C-terminal 8x His tag, purified from Expi293F supernatant; also called human C2; huC2
T2 sequence: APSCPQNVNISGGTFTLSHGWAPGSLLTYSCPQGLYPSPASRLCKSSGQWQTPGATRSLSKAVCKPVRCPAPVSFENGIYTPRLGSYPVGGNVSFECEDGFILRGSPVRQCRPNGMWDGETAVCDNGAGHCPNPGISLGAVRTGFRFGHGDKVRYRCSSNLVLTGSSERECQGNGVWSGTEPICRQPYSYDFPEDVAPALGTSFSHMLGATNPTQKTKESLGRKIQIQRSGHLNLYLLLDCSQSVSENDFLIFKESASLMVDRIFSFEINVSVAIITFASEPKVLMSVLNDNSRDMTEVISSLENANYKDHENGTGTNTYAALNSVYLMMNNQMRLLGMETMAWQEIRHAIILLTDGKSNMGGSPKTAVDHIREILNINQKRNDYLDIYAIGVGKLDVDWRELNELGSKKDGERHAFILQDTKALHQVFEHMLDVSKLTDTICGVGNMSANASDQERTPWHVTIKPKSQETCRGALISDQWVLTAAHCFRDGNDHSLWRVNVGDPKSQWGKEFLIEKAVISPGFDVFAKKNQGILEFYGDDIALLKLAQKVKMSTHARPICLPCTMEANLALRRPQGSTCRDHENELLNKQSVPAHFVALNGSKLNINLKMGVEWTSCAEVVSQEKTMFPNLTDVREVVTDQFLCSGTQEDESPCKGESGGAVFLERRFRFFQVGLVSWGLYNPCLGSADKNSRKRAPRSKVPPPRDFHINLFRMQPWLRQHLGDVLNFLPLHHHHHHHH
Kind of experiment: SPR, mAb captured, C2 analyte, MHAs buffer, pH 7.3.
Protocol: as §1
This buffer contains ammonium sulfate instead of sodium chloride.

Experiment [4] has as its target T1, cynomolgus monkey C2. The experiment can be described thus: cell-based or functional assay. The source holds these as a separate data set.
Experiment [5] concerns the target T2, human complement C2. The experiment can be described thus: cell-based or functional assay.
The target of the next experiment is T3, mouse C2 (mouse, UniProt P21180 19-760, limits assumed).
T3 sequence (looked up): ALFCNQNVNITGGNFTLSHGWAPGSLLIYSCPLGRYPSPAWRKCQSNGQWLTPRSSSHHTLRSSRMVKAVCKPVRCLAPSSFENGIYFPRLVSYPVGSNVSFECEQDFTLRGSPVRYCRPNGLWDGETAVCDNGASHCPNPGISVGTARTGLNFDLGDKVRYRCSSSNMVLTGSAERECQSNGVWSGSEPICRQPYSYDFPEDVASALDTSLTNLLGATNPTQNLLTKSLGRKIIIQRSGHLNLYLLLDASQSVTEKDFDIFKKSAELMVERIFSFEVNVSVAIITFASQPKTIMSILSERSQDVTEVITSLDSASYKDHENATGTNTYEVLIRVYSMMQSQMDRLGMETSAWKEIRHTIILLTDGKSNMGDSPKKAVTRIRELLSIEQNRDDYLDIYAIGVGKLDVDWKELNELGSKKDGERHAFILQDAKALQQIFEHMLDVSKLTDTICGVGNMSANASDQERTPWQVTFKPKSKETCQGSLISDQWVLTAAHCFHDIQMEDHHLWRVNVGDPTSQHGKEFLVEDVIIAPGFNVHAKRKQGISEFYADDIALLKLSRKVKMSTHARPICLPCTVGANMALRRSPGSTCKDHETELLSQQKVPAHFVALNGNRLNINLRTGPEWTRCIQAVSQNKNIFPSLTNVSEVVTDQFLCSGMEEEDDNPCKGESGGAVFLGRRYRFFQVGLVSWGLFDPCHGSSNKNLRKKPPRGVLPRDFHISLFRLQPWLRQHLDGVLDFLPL
Kind of experiment: SPR, mAb captured, mouse C2 analyte, pH 7.3.

Experiment [6] deals with T2, human complement C2. Kind of experiment: cell-based or functional assay. The source holds these as a separate data set.
The target in experiment [7] is T2, human complement C2. The experiment can be described thus: SPR, mAb captured, C2 analyte, HBS-EP, pH 7.3.
Protocol: as §1
The pH dependent anti-C2 antibodies and their germlined versions were tested for their affinity to C2 at pH 7.3 (neutral pH) and pH 6.0 (early endosome pH) using the SPR methods described above in HBS-EP buffer.
Experiment [8] deals with T2, human complement C2. Kind of experiment: SPR, mAb captured, C2 analyte, HBS-EP, pH 6.0, steady state.
Experiment [9] concerns the target T4, human C2a (activated human C2) (human, UniProt P06681 244-752).
T4 construct: the whole entry is named here; also called huC2a
T4 sequence: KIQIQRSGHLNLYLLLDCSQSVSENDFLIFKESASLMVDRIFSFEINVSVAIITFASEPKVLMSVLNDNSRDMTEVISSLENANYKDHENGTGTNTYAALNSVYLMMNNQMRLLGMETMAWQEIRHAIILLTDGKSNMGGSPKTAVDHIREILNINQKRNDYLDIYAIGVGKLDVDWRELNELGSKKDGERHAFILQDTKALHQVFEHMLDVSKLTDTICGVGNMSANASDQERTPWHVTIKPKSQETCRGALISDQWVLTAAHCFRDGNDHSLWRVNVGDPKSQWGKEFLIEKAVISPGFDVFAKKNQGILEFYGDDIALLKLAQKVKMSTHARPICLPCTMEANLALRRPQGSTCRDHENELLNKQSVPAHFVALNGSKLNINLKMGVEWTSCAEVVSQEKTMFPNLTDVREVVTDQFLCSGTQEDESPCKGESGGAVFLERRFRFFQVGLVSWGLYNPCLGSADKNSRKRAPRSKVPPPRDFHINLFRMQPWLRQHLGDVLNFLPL
Kind of experiment: SPR, HBS-EP, pH 7.3, 37 C.
Protocol: as §1
(§3) Purified human C2 zymogen and human C2a were tested at concentrations ranging from 1.9 to 500 nM while human C2b was tested at concentrations ranging from 1.9 to 1000 nM. All experiments were performed in HBS-EP buffer supplemented with 0.1% BSA at 37° C. and pH 7.3. Each antibody was tested against human C2 zymogen and human C2a in duplicate and against C2b in quadruplicate. The flow rate was set to 30 μL/min. Each analyte concentration was tested in duplicate.

Another experiment addresses T5, human C2b (human, UniProt P06681 21-243).
T5 construct: the whole entry is named here
T5 sequence: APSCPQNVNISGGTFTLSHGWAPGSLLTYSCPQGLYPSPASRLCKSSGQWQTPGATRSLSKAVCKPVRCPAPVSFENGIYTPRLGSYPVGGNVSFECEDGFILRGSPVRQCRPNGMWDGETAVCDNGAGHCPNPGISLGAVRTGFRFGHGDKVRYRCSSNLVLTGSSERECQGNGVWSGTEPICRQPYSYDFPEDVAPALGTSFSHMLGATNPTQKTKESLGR
The experiment can be described thus: SPR, HBS-EP, pH 7.3, 37 C.

The target in experiment [10] is T6, cynomolgus monkey FcRn/β2m (cynomolgus monkey, UniProt Q8SPV9 24-297; Q8SPW0 21-119, limits assumed).
T6 construct: injected in solution over immobilised antibody; also called Cyno FcRn/β2m
Kind of experiment: SPR, immobilised antibody, cyno FcRn/b2m analyte, pH 6.0; pH 6.0.
Protocol: Anti-C2 mAbs (1 μg/mL at pH 5) were immobilized on a carboxylmethyldextran (CM5) sensorchip surface using standard EDC/NHS chemistry. Human and Cyno FcRn/β2m (40 μM) were prepared in running buffer (10 mM HEPES, 150 mM NaCl, 10 mM MES adjusted to either pH 6 or pH 7.3) and injected on the immobilized anti-C2 surface at concentrations ranging from 0.078 to 40 μM, prepared in two-fold dilutions in running buffer. Association and dissociation phases were monitored for 180 and 600 seconds, respectively. […] Double referenced sensorgrams were fitted to either a 1:1 kinetic model (pH 6), including a term for mass transport limitation or to a 1:1 steady state model (pH 7.3) where responses at the end of the association phase were plotted against respective concentrations.
Binding to both human and cynomolgus monkey FcRn was tested using the SPR methods described above.

In experiment [11] the target is T7, human complement C2 zymogen (human, UniProt P06681 21-752).
T7 construct: also called huC2; human C2
T7 sequence: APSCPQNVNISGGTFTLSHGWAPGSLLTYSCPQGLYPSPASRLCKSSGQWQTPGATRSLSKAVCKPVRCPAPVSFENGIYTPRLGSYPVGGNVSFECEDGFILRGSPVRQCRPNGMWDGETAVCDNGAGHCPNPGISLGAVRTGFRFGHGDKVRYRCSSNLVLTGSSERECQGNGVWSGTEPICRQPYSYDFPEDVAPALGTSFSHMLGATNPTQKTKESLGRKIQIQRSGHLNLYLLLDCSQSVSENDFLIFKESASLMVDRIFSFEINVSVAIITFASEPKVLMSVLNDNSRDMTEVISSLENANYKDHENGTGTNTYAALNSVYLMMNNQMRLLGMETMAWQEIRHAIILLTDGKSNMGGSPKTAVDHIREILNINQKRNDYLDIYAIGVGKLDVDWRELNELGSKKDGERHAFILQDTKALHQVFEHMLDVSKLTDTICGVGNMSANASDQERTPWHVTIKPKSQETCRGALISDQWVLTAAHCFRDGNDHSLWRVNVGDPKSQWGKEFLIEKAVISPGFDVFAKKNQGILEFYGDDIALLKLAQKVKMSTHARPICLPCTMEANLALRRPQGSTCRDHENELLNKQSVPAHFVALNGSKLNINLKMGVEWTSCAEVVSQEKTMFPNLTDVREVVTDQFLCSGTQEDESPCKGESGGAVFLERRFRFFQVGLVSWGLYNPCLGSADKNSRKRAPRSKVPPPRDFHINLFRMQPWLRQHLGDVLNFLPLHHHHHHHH
Kind of experiment: SPR steady state, captured antibody, analyte huC2 20 mM Ca^2+ (so in the source), pH 6.0.
Protocol: as §1
(§4) Sensogram data was double-referenced against a reference anti-IgG surface (i.e. minus anti-C2 mAb) and blank buffer injections obtained within each experiment. The binding data was fit to 1:1 (kinetic or steady-state) model using local Rmax and null refraction index (RI=0) when appropriate. Buffers and solutions were filtered (0.22 μm) prior to use.
(§5) Calcium concentrations ranged from zero (i.e. no added calcium, control) to near physiological levels (0.02, 0.2 and 2 mM CaCl₂.2H₂O, MW 147.02 Da).

Experiment [12] addresses T7, human complement C2 zymogen. Kind of experiment: SPR steady state, captured antibody, analyte huC2 200 mM Ca^2+ (so in the source), pH 6.0.
Protocol: as §1, §4, §5
Experiment [13] has the same target. Kind of experiment: SPR kinetics, captured antibody, analyte huC2 0 mM Ca^2+, pH 7.3.
Protocol: as §1, §5
The target is the same in experiment [14]. Kind of experiment: SPR kinetics, captured antibody, analyte huC2 2000 mM Ca^2+ (so in the source), pH 7.3.
Protocol: as §1, §5
For experiment [15] the target is unchanged. The experiment can be described thus: SPR steady state, captured antibody, analyte huC2 2000 mM Ca^2+ (so in the source), pH 6.0.
Protocol: as §1, §5
Experiment [16] has the same target. Kind of experiment: SPR kinetics, captured antibody, analyte huC2 20 mM Ca^2+ (so in the source), pH 7.3.
Protocol: as §1, §5
The target is the same in experiment [17]. The experiment can be described thus: SPR kinetics, captured antibody, analyte huC2 200 mM Ca^2+ (so in the source), pH 7.3.
Protocol: as §1, §5
The target is the same in experiment [18]. The experiment can be described thus: SPR, human C2 zymogen analyte, HBS-EP, pH 7.3, 37 C.
Protocol: as §1, §3
Experiment [19] shares this target. The experiment can be described thus: SPR steady state, captured antibody, analyte huC2 0 mM Ca^2+, pH 6.0.
Protocol: as §1, §5

T6 sequence (Q8SPV9 24-297 limits assumed, chain 1 of 2): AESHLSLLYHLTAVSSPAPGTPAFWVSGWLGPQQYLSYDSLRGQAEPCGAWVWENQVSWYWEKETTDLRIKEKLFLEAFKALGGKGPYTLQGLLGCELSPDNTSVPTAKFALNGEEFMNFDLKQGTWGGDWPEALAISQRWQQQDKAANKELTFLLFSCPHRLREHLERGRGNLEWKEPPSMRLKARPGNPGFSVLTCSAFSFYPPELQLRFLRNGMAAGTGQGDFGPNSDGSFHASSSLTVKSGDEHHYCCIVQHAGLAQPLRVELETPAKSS
T6 sequence (Q8SPW0 21-119 limits assumed, chain 2 of 2): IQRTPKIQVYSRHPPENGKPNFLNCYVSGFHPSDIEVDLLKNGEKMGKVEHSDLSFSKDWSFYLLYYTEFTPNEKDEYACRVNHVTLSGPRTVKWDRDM
Protocol for human C2b: as §1, §3
Protocol for mouse C2: as §1, §2

B1: RF16-203 (antibody, V domains shown)
VH: EVQLLESGGGLVQPGGSLRLSCAASGFTFSRYYMMWVRQAPGKGLEWVSSIGSSGGTTNYADSVKGRFTISRDNSKNTLYLQMNSLRAEDTATYYCAKGGMVLGVVNIWGQGTLVTVSS
VL: QSALTQPPSVSVSPGQTATITCSGDKLGEKYVSWYQQKPGQSPVVVIFQDIKRPSGIPERFSGSNSGNTATLTISGTQAMDEADYYCQTWGTGGIQVFGGGTKLTVLR
notes: Human antibody from a phage display library
B1: the “IC50, inhibition of cynomolgus classical complement pathway (Wieslab assay)” value with cynomolgus monkey C2 [1] turned out to be 13.3 nM. Besides, the “IC50, inhibition of cynomolgus lectin complement pathway (Wieslab assay)” value in the experiment with cynomolgus monkey C2 [1] was determined as 112 nM. Besides, the equilibrium dissociation constant (Kd) came to 2.82 nM with cynomolgus monkey C2 [2]; 12.6 nM in the experiment with human complement C2 [3]; 153 nM with mouse C2; 2.5 nM with human complement C2 [7]; 73 nM with human complement C2 [8]. Moreover, the “IC50, inhibition of cyno classical pathway (hemolysis assay)” value with cynomolgus monkey C2 [4] stood at 361 nM. In addition, the “IC50, inhibition of human classical pathway (hemolysis assay)” value with human complement C2 [5] was found to be 42 nM. In the experiment with human complement C2 [6], the “IC50, inhibition of human classical complement pathway (Wieslab assay)” value is 5.4 nM. In addition, in the experiment with human complement C2 [6], the “IC50, inhibition of human lectin complement pathway (Wieslab assay)” value was 1.29 nM.

B2: RF16-226 (antibody, human IgG4 S228P, lambda)
heavy: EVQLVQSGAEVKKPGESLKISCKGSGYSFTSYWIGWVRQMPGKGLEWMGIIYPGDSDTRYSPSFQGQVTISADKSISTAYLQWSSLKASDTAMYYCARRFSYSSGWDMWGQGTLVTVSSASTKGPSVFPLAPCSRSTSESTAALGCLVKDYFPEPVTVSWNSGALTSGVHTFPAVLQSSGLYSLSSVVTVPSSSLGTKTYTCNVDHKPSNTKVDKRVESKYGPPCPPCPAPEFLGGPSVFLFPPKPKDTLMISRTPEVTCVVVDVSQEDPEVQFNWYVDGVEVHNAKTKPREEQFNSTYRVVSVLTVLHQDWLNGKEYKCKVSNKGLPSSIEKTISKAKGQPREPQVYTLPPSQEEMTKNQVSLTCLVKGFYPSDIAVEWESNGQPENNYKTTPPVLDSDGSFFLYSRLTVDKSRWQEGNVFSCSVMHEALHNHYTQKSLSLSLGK
light: SYELTQPPSVSVSPGQTARITCSGDALTSKYVAWYQQKSGLAPLLVIYEDTRRPSGIPAKFSGSSSGSVATLTISGAHGDDEADYYCYSTDASGHQRVFGGGTKLTVLSQPKAAPSVTLFPPSSEELQANKATLVCLISDFYPGAVTVAWKADGSPVKAGVETTKPSKQSNNKYAASSYLSLTPEQWKSHRSYSCQVTHEGSTVEKTVAPTECS
notes: Human antibody from a phage display library, unmodified Fc; also called WT
In the case of B2, the binding result is “no binding (tested: C2a tested up to 500 nM)” in experiment [9] and “no binding (tested: C2b tested up to 1000 nM)” with human C2b. Moreover, the Kd turned out to be 2100 nM in experiment [10]; 87.4 nM in experiment [11]; 94.2 nM in experiment [12]; 9.2 nM in experiment [13]; 11.1 nM in experiment [14]; 111 nM in experiment [15]. Also, the dissociation constant Kd in [16] was found to be 10.2 nM; in experiment [17] it was 9.3 nM; in experiment [18], 8 nM; in [19], 93.6 nM. The koff in experiment [13] came out at 0.00499 s⁻¹; in experiment [14], 0.0062 s⁻¹; in [16], 0.0057 s⁻¹; in [17], 0.0059 s⁻¹. The on-rate (kon) is 546000 M⁻¹ s⁻¹ in experiment [13], 561000 M⁻¹ s⁻¹ in experiment [14], 569000 M⁻¹ s⁻¹ in experiment [16] and 631000 M⁻¹ s⁻¹ in experiment [17].
